# Assay results: patent publication US20150086555A1
# B1: TCN-535 (5246_P19) (antibody, V domains shown)
# VH: QVQLVQSGSEVKKPGTSVKVSCTASGSVFTNYGISWVRQAPGQGLEWMGGIIPLFGAAKYAQKFQGRVTITADESTKTVYMELSRLTSKDTAIYFCAKAPRVYEYYFDQWGQGTPVTVSS
# VL: EIVLTQSPGTLSLSPGERATLSCRASQSVSSSQLAWYQQKPGQAPRLIIYGASTRATGIPDRFSGSGSGTDFTLTIGRLEPEDFAVFFCQQYSTSPPTFGQGTKVDFK
# B2: TCN-553 (5261_C18) (antibody, V domains shown)
# VH: QVQVVQSGTEVKKPGSSVKVSCQTSGGRFMSYAITWVRQAPGQGLEWMGGIVPVFGTANYAQKFQGRVTITTDDSTRTAYMELSSLRSEDTAVYYCGFRYGSGYGFDSWGQGTLVTVSS
# VL: EIVLTQSPGTLSLSPGERATLSCRASQSVSSSYLAWYQKKPGQAPRLLIYGASTRATGIPDRFTGSGSGTDFTLSISRLEPEDFAVYYCQHFGTSVFTFGGGTKVEIK
# B3: TCN-530 (5248_H10a) (antibody, V domains shown)
# VH: QVQLVQSGAEVRKPGSSVKVSCKASGGPFMSYAIGWVRQAPGQGLEWMGGINPVFGRPHYAQKFQGRVTIATDDSTKTSYMELSSLTSEDTGMYYCASRYSRSSPGTFESWGQGTLVTVSS
# VL: EIVMTQFPATLSVSPGERVTLSCRASQSVSNNLAWYQQKPGQPPRLLIYDASTRATGVPAKFSGTGSGTEFTLSISSLQSEDFAVYYCQQYHNWPPSYSFGLGTKLEIK
# B4: TCN-550 (5096_F06) (antibody, V domains shown)
# VH: QVQLQESGPGLVKPSETLSLTCTVSGASINSHYWSWIRQPPGKGLEWIGYVYYSGSTTYNPSLKSRVTLSVDTSKNQFSLNLSSVTAADTAFYYCARHPYDVLTGSGDWFDPWGQGTLVTVSS
# VL: SYVLTQAPSVSVAPGQTARITCGGNAIGSKKVHWYQHKAGQAPVLVVYDDTDRPSGIPERFSGSNSWSTATLTINRVEAGDEADYYCQVWDFTIDHVVFGGGTKLTVL
# B5: TCN-557 (5081_A04) (antibody, V domains shown)
# VH: QVQLVQSGAEVKKPGASVKVSCKASGHTFTGYYIHWVRQAPGQGLEWMGWINPDSGATSSAQNFQGRVTMTGDTSSSTAYMELSRLSFDDTAVYYCARVLFTSPFDFWGEGTLVTVSS
# VL: QAVVTQEPSLAVSPGGTVTLTCGSSTGAVTRGHYPYWFQQKPGQAPRALIYDSAGNRHSWTPARFSGSLLGGKAALTLSGAQPEDEAEYYCLLSYSGVWVFGGGTKLTVL
# B6: TCN-536 (5095_N01) (antibody, V domains shown)
# VH: QVQLQQWGAGLLKPSETLSLTCAVYGGSFSVSGYYWSWIRQPPGRGLEWIGEISHGGSTNYNPSLKSRVTISVDTTKNQFSLRLSSVTAADTAVYYCARGTDPDTEVYCRVGNCAAFDYWGQGSLVTVSS
# VL: EIILAQSPGTLSLSPGERATLSCRASQFVSTRSLAWYQQRPGQAPRLLIYGASSRATGIPDRFSGSGSGTDFTLTISRLEPEDFAVYYCQHYGYSPRYAFGQGSKVEIK
# B7: TCN-534 (5249_B02) (antibody, V domains shown)
# VH: QVQLVQSGAEVKKPGSSVKVSCRESGGTFNGYTITWVRQAPGQGLEWMGGIIPMMGTVNYAQKLQGRVTITTDYFTKTAYMDLNNLRSEDTAMYYCVKIRYTGQQLLWGQGTLVTVSS
# VL: DIQMTQSPSTLSASIGDRVTITCRASQSIASWLAWYQQKPGKAPKLLIYEAVNLESGVPSRFSGSGSGTDFTLTISSLQPDDFATYFCQHYGTISQTFGGGTKVEIK
# B8: TCN-552 (5249_I23) (antibody, V domains shown)
# VH: QVQVVQSGAEVKKPGSSVRVSCQASGGTFMNYAIIWVRRAPGQGLEWMGGIIPVFPTPNYAQMFQGRVTISTDESRSTSFLELTNLRYEDTAVYYCARRIYHGGNSGFDFWGQGTLVTVSS
# VL: EIVLTQSPATLSLSPGERATLSCRASQSVGNYLAWYQQKPGQAPRLLIYDSSNRAPGIPARFSGSGSGTDFTLTISSLAPEDFAVYYCQQRSKWPPMYSFGHGTKLEIK
# Assays:
# Settings in all cases: remark: other sources report otherwise
# [1] = target: recombinant soluble homotrimeric HA of A/Anhui/1/05 (H5N1) (Influenza A virus A/Anhui/1/2005(H5N1)); experiment: trimeric HA microarray, transfection supernatant set 4
# [2] = target: recombinant soluble homotrimeric HA of A/California/4/09 (H1N1) (Influenza A virus A/California/04/2009(H1N1)); experiment: as above
# [3] = target: T1, recombinant soluble homotrimeric HA of A/Egypt/3300-NAMRU3/08 (H5N1) (Influenza A virus A/Egypt/3300-NAMRU3/2008(H5N1)); experiment: as above
# [4] = target: recombinant soluble homotrimeric HA of A/Hong Kong/1073/99 (H9N2) (Influenza A virus A/Hong Kong/1073/99 (H9N2)); experiment: as above
# [5] = target: T2, recombinant soluble homotrimeric HA of A/Indonesia/5/05 (H5N1) (Influenza A virus A/Indonesia/5/2005(H5N1)); experiment: as above
# [6] = target: recombinant soluble homotrimeric HA of A/Japan/305/57 (H2N2) (Influenza A virus A/Japan/305/1957(H2N2)); experiment: as above
# [7] = target: recombinant soluble homotrimeric HA of A/Netherlands/219/03 (H7N7) (Influenza A virus A/Netherlands/219/03(H7N7)); experiment: as above
# [8] = target: recombinant soluble homotrimeric HA of A/Solomon Islands/3/06 (H1N1) (Influenza A virus A/Solomon Islands/3/2006(H1N1)); experiment: as above
# [9] = target: recombinant soluble homotrimeric HA of A/South Carolina/1/18 (H1N1) (Influenza A virus A/South Carolina/1/18 (H1N1)); experiment: as above
# [10] = target: recombinant soluble homotrimeric HA of A/Vietnam/1203/04 (H5N1) (Influenza A virus A/VietNam/1203/2004(H5N1)); experiment: as above
# [11] = target: recombinant soluble homotrimeric HA of A/Wisconsin/67/05 (H3N2) (Influenza A virus A/Wisconsin/67/2005(H3N2)); experiment: as above
# [12] = target: T3, recombinant soluble homotrimeric HA of A/chicken/Vietnam/NCVD-016/08 (H5N1) (Influenza A virus A/chicken/Vietnam/NCVD-016/2008(H5N1)); experiment: as above
# [13] = target: recombinant soluble homotrimeric HA of A/duck/Yangzhou/02/05 (H8N4) (Influenza A virus A/duck/Yangzhou/02/2005(H8N4)); experiment: as above
# [14] = target: recombinant soluble homotrimeric HA of A/northern shoveler/California/HKWF115/07 (H6) (Influenza A virus A/northern shoveler/California/HKWF115/2007(H6N1)); experiment: as above
# [15] = target: recombinant soluble homotrimeric HA, A/Netherlands/219/03 H7N7 (Influenza A virus A/Netherlands/219/03(H7N7)); experiment: microarray, transfection SN IgG, trimeric HA
# [16] = target: recombinant soluble homotrimeric HA, A/swine/Ontario/01911-2/99 H4N6 (Influenza A virus A/Swine/Ontario/01911-2/99 (H4N6)); experiment: microarray, transfection SN IgG, trimeric HA
# [17] = target: T1, recombinant soluble homotrimeric HA of …; experiment: trimeric HA microarray, transfection supernatant set 3
# [18] = target: T2, recombinant soluble homotrimeric HA of …; experiment: as above
# [19] = target: T3, recombinant soluble homotrimeric HA of …; experiment: as above
# [20] = target: recombinant soluble homotrimeric HA of A/swine/Ontario/01911-2/99 (H4N6) (Influenza A virus A/Swine/Ontario/01911-2/99 (H4N6)); experiment: trimeric HA microarray, transfection supernatant set 4
Binder,Trimeric HA Binding: RLU [1] [RLU],Trimeric HA Binding: RLU [2] [RLU],Trimeric HA Binding: RLU [3] [RLU],Trimeric HA Binding: RLU [6] [RLU],Trimeric HA Binding: RLU [7] [RLU],Trimeric HA Binding: RLU [9] [RLU],Trimeric HA Binding: RLU [10] [RLU],Trimeric HA Binding: RLU [12] [RLU],Trimeric HA Binding: RLU [13] [RLU],Trimeric HA Binding: RLU [14] [RLU],Trimeric HA Binding: RLU [15] [RLU],Trimeric HA Binding: RLU [16] [RLU],also measured
B1,24,25200,25300,21500,159,22400,25200,20900,428,18100,–,–,Trimeric HA Binding: RLU [4]: 21200 RLU; Trimeric HA Binding: RLU [5]: 18200 RLU; Trimeric HA Binding: RLU [8]: 836 RLU; Trimeric HA Binding: RLU [11]: 4450 RLU
B2,–,–,–,–,–,–,–,–,–,–,7530,12200,–
B3,–,–,–,–,–,–,–,–,–,–,–,–,Trimeric HA Binding: RLU [17]: 25500 RLU; Trimeric HA Binding: RLU [18]: 25500 RLU; Trimeric HA Binding: RLU [19]: 18000 RLU
B4,–,–,–,–,–,–,–,–,–,–,3250,1700,–
B5,–,–,–,–,–,–,–,–,–,–,53700,41500,–
B6,18,49,97,260,246,39,182,19,48,95,–,–,Trimeric HA Binding: RLU [11]: 20600 RLU; Trimeric HA Binding: RLU [20]: 168 RLU
B7,20,27000,8310,14700,361,11800,23700,11400,79,21300,–,–,Trimeric HA Binding: RLU [4]: 731 RLU; Trimeric HA Binding: RLU [5]: 948 RLU; Trimeric HA Binding: RLU [8]: 60 RLU; Trimeric HA Binding: RLU [20]: 264 RLU
B8,–,–,–,–,–,–,–,–,–,–,7420,9080,–
